Measurements as given in paper PMC3470569, “Probing Subunit-Subunit Interactions in the Yeast Vacuolar ATPase by Peptide Arrays” (PLoS ONE, 2012).
One block for each binder: values may come before it. Ends that are not written are not given here. cellulose = not defined here

How the values were obtained:
Assay in all cases: peptide or protein array; 20-mer peptides linked at their C-terminal end to cellulose and spotted in duplicate on glass slides; blocked in 2% nonfat milk; purified probe at 4 µM in TBS for 1 hour at 4°C; bound probe detected through MBP or FLAG with HRP-coupled antibody (chemiluminescence); hits by ANOVA (p 0.05, Bonferroni) and HCL in MeV, score of at least 1 in 75% of the spots
Conditions in all cases: both partners purified
[1] = biological target: T1, full-length subunit C, N-terminal MBP fusion (S. cerevisiae, UniProt P31412 1-392)
T1 construct: V-ATPase subunit C, S. cerevisiae, 392 amino acids; also called MBP-C; source: E. coli, purified (amylose column); not shown: MBP, N-terminal, kept
T1 sequence (looked up): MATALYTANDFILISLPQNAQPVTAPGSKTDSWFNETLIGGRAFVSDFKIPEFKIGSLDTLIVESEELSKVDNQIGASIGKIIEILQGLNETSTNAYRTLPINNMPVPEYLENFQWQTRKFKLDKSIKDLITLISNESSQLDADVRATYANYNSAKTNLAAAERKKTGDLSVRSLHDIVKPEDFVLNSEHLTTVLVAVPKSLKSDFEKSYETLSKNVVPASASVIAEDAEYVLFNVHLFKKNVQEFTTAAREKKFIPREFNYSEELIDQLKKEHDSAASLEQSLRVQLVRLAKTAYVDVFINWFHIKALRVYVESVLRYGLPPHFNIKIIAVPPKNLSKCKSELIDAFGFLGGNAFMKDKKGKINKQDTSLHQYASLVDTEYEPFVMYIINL

[2] = biological target: T2, C-terminal domain of subunit H (HCT), N-terminal MBP fusion (S. cerevisiae, UniProt P41807 353-478)
T2 construct: V-ATPase subunit H (Vma13p), S. cerevisiae, C-terminal globular domain 353-478 (126 amino acids); Construct provided by the laboratory of Dr. Patricia Kane; also called MBP-HCT; source: E. coli, purified (amylose column; ultrafiltration or size exclusion chromatography); not shown: MBP, N-terminal, kept
T2 sequence (looked up): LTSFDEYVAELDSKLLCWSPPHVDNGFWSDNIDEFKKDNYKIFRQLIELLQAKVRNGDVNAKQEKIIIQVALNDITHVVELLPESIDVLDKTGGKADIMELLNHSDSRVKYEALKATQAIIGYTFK

[3] = biological target: maltose binding protein (MBP) only (UniProt P0AEX9 27-396 = MBP)
[4] = biological target: T3, subunit E (Vma4p), N-terminal MBP fusion (S. cerevisiae, UniProt P22203 1-233)
T3 construct: V-ATPase subunit E (Vma4p), S. cerevisiae, 233 amino acids; also called MBP-E; source: E. coli, purified (amylose column); not shown: MBP, N-terminal, kept
T3 sequence (looked up): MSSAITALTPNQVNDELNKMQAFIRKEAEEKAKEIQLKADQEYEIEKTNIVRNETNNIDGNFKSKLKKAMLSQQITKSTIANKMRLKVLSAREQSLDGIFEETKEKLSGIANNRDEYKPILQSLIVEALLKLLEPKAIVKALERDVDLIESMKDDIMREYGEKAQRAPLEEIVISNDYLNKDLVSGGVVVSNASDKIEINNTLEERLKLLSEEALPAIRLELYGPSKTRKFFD

[5] = biological target: T4, full-length subunit H (Vma13p), N-terminal MBP fusion (S. cerevisiae, UniProt P41807 1-478)
T4 construct: V-ATPase subunit H (Vma13p), S. cerevisiae, 478 amino acids; Construct provided by the laboratory of Dr. Patricia Kane; also called MBP-H; source: E. coli, purified (amylose column; ultrafiltration or size exclusion chromatography); not shown: MBP, N-terminal, kept
T4 sequence (looked up): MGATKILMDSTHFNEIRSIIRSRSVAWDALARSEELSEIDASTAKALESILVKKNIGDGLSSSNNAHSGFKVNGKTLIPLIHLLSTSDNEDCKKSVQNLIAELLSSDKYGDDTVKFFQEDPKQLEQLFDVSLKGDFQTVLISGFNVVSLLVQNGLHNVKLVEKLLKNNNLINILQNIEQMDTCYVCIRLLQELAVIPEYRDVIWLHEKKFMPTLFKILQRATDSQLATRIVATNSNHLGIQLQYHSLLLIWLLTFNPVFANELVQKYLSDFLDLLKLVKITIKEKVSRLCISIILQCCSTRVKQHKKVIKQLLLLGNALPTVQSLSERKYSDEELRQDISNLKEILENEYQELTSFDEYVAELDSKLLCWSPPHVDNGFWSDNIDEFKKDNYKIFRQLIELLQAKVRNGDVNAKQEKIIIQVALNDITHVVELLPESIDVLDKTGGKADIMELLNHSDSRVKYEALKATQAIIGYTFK

binding result [1]: binds
binding result [2]: binds
B1: A(205-224) (peptide, UniProt P17255 205-224, looked up)
peptide: GKKSDFTLYHTWPVRVPRPV-cellulose
modifications: reading uncertain
notes: source: synthetic peptide, spotted on glass slide array (Intavis)

binding result [1]: binds
B2: C(181-200) (peptide, UniProt P31412 181-200, looked up)
peptide: PEDFVLNSEHLTTVLVAVPK-cellulose
modifications: reading uncertain
notes: as for B1

binding result [3]: binds
B3: D(111-130) (peptide)
peptide: SYIDPEINDFRLTGLGRGGQ-cellulose
modifications: reading uncertain
notes: The promiscuous, 'sticky' peptide that was detected by most probes including MBP alone; source: synthetic peptide, spotted on glass slide array (Intavis)

binding result [1]: binds
B4: a(451-470) (peptide, UniProt P32563 451-470, looked up)
peptide: RGEIFDMAFTGRYIILLMGV-cellulose
modifications: reading uncertain
notes: as for B1

binding result [1]: binds
B5: B(61-80) (peptide, UniProt P16140 61-80, looked up)
peptide: TVRQGQVLEIRGDRAIVQVF-cellulose
modifications: reading uncertain
notes: V-ATPase subunit B, S. cerevisiae, residues 61-80; source: synthetic peptide, spotted on glass slide array (Intavis)

binding result [4]: binds
binding result [5]: binds
B6: d(151-170) (peptide, UniProt P32366 151-170, looked up)
peptide: TVLVDTPLAPYFKNCFDTAE-cellulose
modifications: reading uncertain
notes: as for B1

binding result [1]: binds
binding result [2]: binds
B7: C(11-30) (peptide, UniProt P31412 11-30, looked up)
peptide: FILISLPQNAQPVTAPGSKT-cellulose
modifications: reading uncertain
notes: V-ATPase subunit C, S. cerevisiae, residues 11-30; source: synthetic peptide, spotted on glass slide array (Intavis)
